This data set can be described thus: soluble on expression in E. coli; label from the status in PepcDB or PDB records.
For the sequence “MSGGGIIPRGGGYSKRRGRGRRGGGNGGFRDDIRDNQSDRHLSPDRRSNHSEDRHEHRFNNYRQQNRPNSRTPSPSNHNQVQTYRNNPFDARPALSSNDRDQGRNRFSPPSFRRDGRDSDRNGYHEKEEEPTRGSRNDLRTILKPTDKEAARTWKLRIADAEEAIRRAEFQLRRAKMDHEALLEAYKEYTETTCPQELLKPNW”, the “soluble on expression in E. coli” value is recorded as “not soluble”.

Turning to “MGSDKIHHHHHHMEEEAIVPEVLLDKAIELGLSFTGSTFPISIFPSEIRNIIAEVHECQGFPIDYIASAMLVAIAVGIGNTHLAELKRGWQESTMLYVALVGRPGTNKSHPLSFAMKPFLDFDYQENKLYERSYAEYDNIMRMNRKERIEGGFPDQPTEPMRKRFLVSDITPEGLSFIHAQNKRGLCLWTDELSAWFKNFNRYNSGSEEQFWLSVFSAKATISDRKGNRSSIFIKRPYISVVGTIQKKILGELSKGERSSNGFIDRILFVMPNLQQKARWSRTELPDDTEKRWGGIIRRLIDLPCAKDEEGEVTPEIIPFEEDAKARLYMWQEEHARLCDTEANEVLVGVYCKLEIYIIRFCLIIQLARWVCGESEKSAIDLTSVERAITLTEYFRHSAQQVHAEIAGVQLTQQQQQLLAELPASFQTAEALSIAQKLGMKERAFKDFLSRNIGHLFAKERHGLYHKLNM”, the “soluble on expression in E. coli” value is recorded as “not soluble”.

With “MKHSVNAMAGGHGAARYNSTDLPKLPAPQPIKTLKHFLDFAQALQSKKEFQETKQIVNDFVVKDLPKLQELLQKRADALPNWLTPWWLNIAYLAARTPLPVVTSPGVMFPKFDYNTEEGQLEYAAKISQAAVHFYLRAKNNQLKPDMAGKSPLDMSQYQFLFGTTRVPKVGVDEIRYGCDYKEKLQHILVIRNGHLFRVQVLDSNEQPLSIFAITQQLAKVVSESQTPNPHPVGIVSSDSRDKWANVYSSLKKDNNNAKSLEAVEKSLFVVCLDKASEPPVGYTEKDEQSRQALHGGGSKVNSSNRWFDKTIQFVIGTNGYTGMTYEHTPAEGPPVGALMDFICDQFDANTFITEGTPSNSPVQRLDISTDEEINKRIAKSSKNMDSIAEDLDIVAFTFKPYGKNFPKSSKISPDSFIQMAYQLAFYRIHSSLPPTYETATLRKFTEGRTENIRSPNTAAASFVKKMVSKPPTPVSEIYDALVHATNSHKKYTMDCMDAAGMDRHLLAWKLIATENNLPTPEIFGSNIYQQLNHFQVSTSQVPTRHFIQMCFGPSALDCYGICYNPQETELHFMISTFKSYGSTSSKKFAKELQKALIDMKSVINKATKEMSKL”, the “soluble on expression in E. coli” value was “not soluble”.

Consider “MGSDKIHHHHHHMAYFMLLMTTPIQATIQQSMALAKAHYENFPVASVLLPKDLRAPVGLVYAFARQADDFADEGELSPEERLALLDGFRSQLDQIKHGATPDTPLFQALQAMIQERDLPLEPFYDLLSAFSQDVVKARYANFGEVIDYCRRSANPVGRLMLHLYKQATPRNVALSDAICTSLQLINFLQDVDVDYRKNRIYLPLDELQKYNITEQQIAGQHSGGTWSLFMEFQVNRTRKLLQSGAPLGLALPGRIGLEMRMIIAGGERILKKLHHVRGDVFNQRPTLKPTDWAYMLYRAVRKK”, for which the “soluble on expression in E. coli” value is given as “not soluble”.

On to “QKPYKETYGISHITRHDMLQIPEQQKNEKYQVPEFDSSTIKNISSAKGLDVWDSWPLQNADGTVANYHGYHIVFALAGDPKNADDTSIYMFYQKVGETSIDSWKNAGRVFKDSDKFDANDSILKDQTQEWAGSATFTSDGKIRLFYTDFSGKHYGKQTLTTAQVNVSASDSSLNINGVEDYKSIFDGDGKTYQNVQQFIDEGNYSSGDNHTLRDPHYVEDKGHKYLVFEANTGTEDGYQGEESLFNKAYYGKSTSFFRQESQKLLQSDKKRTAELANGALGMIELNDDYTLKKVMKPLIASNTVTDEIERANVFKMNGKWYLFTDSRGSKMTIDGITSNDIYMLGYVSNSLTGPYKPLNKTGLVLKMDLDPNDVTFTYSHFAVPQAKGNNVVITSYMTNRGFYADKQSTFAPSFLLNIKGKKTSVVKDSILEQGQLTVN”, for which the “soluble on expression in E. coli” value is listed as “soluble”.

On to “MGDSAPARIDTLEIKLLFAGDIMTHGPQIESAKCEGGRVYDFSSSFDTLASRIGAADLAIGNLETTFAGAPYSGYPTFSSPDAMGEALKNAGFDVLTTANNHTADKGKKGIIRTLDMLDSLGIAHTGSYRDIFDRDKMTPLILEVKGVRIAILAYTYGTNGMPVPAPTWVDPIDTVMIKKDLLRADSLGADYRIVQIHWGIEYRKEPDSEQLELARKLHRYGADAIIGSHPHVVQGSQWLKSDSKTSFVIYSMGNFISNQRKPAATRGGMLLSLTLRKVGDRITTHPDYQYVFVNKRTPQGKRVYRLLPVDPFSSDTLPSLPPEEQRDYKEFAKYYQMIPLVLIEREDNRIRNRLQVSQRAFLEHHHHHH”, for which the “soluble on expression in E. coli” value is on record as “not soluble”.

For the origin of these results see the DeepSol protein solubility set.
